For the data set, the target named is ErbB2 (HER2), recombinant (human) (UniProt P04626). The data set can be described thus: ELONA. Particulars: every T is Nap-dU (5-[N-(1-naphthylmethyl)carboxamide]-2'-deoxyuridine, printed P); ELONA: ErbB2-coated plate, biotin-aptamer 1 h at room temp, wash 10 mM PBS, 0.05% Tween-20, pH 7.4 (binding buffer not stated); cells: DPBS, 4.5 g/L glucose ….

Here are results for 1 sequence from article PMC10511116.

With “ATGTTAGAGTTTGCCTGAGTGCCTCGCAAGGGCGTAACAA [ErbB2 aptamer]”, the Kd was found to be 1.37 nM.
